Experimental findings from publication PMC5448812, “Distinct DNA-binding surfaces in the ATPase and linker domains of MutLγ determine its substrate specificities and exert separable functions in meiotic recombination and mismatch repair” are described below.

The target in data set [1] is T1, HisFlag-Mlh1;Mlh3 (Saccharomyces cerevisiae (S288c strain …, UniProt P38920;Q12083 1-769;1-715, |)).
T1 sequence 1: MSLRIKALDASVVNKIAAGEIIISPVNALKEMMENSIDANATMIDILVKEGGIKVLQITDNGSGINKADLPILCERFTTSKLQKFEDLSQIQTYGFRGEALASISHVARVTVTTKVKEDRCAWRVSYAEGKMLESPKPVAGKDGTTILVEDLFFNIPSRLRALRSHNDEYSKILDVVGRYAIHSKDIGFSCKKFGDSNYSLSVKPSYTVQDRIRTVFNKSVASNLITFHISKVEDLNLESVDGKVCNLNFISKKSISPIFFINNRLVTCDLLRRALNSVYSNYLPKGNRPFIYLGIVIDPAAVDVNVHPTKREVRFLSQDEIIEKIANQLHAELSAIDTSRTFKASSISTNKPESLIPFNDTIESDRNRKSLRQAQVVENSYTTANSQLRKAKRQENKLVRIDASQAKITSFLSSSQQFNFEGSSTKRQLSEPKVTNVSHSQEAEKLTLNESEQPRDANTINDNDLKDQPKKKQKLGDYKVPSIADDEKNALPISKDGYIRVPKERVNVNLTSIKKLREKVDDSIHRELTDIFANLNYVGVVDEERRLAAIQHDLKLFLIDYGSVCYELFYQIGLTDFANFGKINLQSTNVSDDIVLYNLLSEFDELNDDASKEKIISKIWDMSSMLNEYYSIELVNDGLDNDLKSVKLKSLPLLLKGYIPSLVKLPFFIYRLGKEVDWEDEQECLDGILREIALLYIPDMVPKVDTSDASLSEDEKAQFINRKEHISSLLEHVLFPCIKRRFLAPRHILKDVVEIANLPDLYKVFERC
T1 sequence 2: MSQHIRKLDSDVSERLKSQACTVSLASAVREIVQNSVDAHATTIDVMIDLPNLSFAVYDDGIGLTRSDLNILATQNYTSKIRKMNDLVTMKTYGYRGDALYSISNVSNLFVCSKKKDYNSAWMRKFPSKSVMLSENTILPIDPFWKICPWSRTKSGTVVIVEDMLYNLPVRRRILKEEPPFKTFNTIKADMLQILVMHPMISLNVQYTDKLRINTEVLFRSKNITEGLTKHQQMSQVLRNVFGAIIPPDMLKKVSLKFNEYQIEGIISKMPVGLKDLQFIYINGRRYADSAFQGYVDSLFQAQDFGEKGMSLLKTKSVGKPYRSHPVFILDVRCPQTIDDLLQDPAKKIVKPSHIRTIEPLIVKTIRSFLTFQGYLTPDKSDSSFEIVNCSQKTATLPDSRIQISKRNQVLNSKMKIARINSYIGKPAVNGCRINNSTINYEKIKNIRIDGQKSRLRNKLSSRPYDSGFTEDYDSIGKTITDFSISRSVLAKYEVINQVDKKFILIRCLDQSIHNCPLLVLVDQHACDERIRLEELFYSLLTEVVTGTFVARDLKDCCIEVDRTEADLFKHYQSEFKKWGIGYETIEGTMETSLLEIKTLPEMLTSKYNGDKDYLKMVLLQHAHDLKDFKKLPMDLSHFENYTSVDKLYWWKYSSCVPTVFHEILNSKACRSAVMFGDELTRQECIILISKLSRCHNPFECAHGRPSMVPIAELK
The data set is described as follows: competition; labeled poly-dT 80 nt; 500x excess in nt; EMSA: 25 mM Tris-HCl pH 7.5, 15% glycerol, 100 mM NaCl, 2 mM DTT, 5 mM EDTA, 1 mg/ml BSA, 30 min 30 C, 1 nM DNA; pull-down: similar, 10% glycerol, 0.2 mg/ml BSA, 0.1% Triton X-100, 4 C. The conditions noted are these: protein: recombinant;recombinant; tags: N-terminal 6xHis-2xFlag;none; copies: 1;1. (Mobility shift assays separate free from complexed probe on a gel.)

The target in data set [2] is T1, HisFlag-Mlh1;Mlh3. As to the kind of experiment: EMSA; Hill slope 2.9 +/- 0.27; 5 mM EDTA; EMSA: 25 mM Tris-HCl pH 7.5, 15% glycerol, 100 mM NaCl, 2 mM DTT, 5 mM EDTA, 1 mg/ml BSA, 30 min 30 C, 1 nM DNA; pull-down: similar, 10% glycerol, 0.2 mg/ml BSA, 0.1% Triton X-100, 4 C. The conditions noted are these: protein: recombinant;recombinant; tags: N-terminal 6xHis-2xFlag;none; copies: 1;1; label: 5'-32P when used as probe.

For data set [3], the target named is T1, HisFlag-Mlh1;Mlh3. The data set is described as follows: FeBABE footprinting; cleavage in Mlh1 N-terminal domain and linker; EMSA: 25 mM Tris-HCl pH 7.5, 15% glycerol, 100 mM NaCl, 2 mM DTT, 5 mM EDTA, 1 mg/ml BSA, 30 min 30 C, 1 nM DNA; pull-down: similar, 10% glycerol, 0.2 mg/ml BSA, 0.1% Triton X-100, 4 C. The conditions noted are these: protein: recombinant;recombinant; tags: N-terminal 6xHis-2xFlag;none; copies: 1;1; label: 3'-biotin.

The target of data set [4] is T2, Mlh1 untagged;HisFlag-Mlh3 (Saccharomyces cerevisiae (S288c strain …, UniProt P38920;Q12083 1-769;1-715, |)).
T2 sequence 1: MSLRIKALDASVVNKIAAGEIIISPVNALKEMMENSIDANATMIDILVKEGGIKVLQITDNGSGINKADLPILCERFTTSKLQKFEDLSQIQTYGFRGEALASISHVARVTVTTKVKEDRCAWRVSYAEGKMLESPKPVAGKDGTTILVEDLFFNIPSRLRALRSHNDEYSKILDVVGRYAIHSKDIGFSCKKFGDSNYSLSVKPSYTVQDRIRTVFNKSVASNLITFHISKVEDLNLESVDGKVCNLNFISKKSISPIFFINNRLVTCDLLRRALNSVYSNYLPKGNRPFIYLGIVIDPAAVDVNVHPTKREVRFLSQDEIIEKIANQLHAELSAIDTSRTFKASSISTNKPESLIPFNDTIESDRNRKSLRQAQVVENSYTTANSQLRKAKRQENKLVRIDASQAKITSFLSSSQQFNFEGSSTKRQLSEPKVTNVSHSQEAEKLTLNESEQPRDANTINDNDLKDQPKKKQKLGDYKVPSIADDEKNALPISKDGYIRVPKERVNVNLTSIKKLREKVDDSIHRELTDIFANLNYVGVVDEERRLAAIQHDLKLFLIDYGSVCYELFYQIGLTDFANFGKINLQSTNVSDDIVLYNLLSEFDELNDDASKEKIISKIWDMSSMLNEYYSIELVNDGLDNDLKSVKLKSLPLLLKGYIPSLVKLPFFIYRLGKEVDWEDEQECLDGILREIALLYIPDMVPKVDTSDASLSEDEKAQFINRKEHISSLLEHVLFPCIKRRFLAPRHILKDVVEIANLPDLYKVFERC
T2 sequence 2: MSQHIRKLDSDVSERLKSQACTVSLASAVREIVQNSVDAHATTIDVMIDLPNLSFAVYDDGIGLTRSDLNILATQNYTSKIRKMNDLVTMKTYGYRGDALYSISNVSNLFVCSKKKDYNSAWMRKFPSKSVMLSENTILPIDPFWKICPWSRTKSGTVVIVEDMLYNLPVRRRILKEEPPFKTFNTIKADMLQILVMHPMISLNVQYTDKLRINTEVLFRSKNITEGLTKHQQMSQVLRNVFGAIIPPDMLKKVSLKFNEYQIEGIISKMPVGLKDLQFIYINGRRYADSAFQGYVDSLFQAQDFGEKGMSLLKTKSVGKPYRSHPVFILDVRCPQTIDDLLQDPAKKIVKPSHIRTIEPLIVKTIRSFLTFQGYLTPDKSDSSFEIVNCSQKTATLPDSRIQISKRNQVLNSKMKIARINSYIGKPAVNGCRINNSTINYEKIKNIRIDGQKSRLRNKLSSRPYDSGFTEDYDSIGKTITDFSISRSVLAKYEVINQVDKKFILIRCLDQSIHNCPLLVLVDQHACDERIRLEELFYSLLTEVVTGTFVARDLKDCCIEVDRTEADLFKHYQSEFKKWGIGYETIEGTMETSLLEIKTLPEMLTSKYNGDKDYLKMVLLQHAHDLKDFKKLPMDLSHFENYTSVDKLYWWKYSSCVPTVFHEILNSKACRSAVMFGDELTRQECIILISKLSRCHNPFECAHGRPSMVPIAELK
As to the kind of experiment: FeBABE footprinting; cleavage in Mlh3 N-terminal domain and linker; EMSA: 25 mM Tris-HCl pH 7.5, 15% glycerol, 100 mM NaCl, 2 mM DTT, 5 mM EDTA, 1 mg/ml BSA, 30 min 30 C, 1 nM DNA; pull-down: similar, 10% glycerol, 0.2 mg/ml BSA, 0.1% Triton X-100, 4 C. The conditions noted are these: protein: recombinant;recombinant; tags: none;N-terminal 6xHis-2xFlag; copies: 1;1; label: 3'-biotin.

The target in data set [5] is T1, HisFlag-Mlh1;Mlh3. As to the kind of experiment: EMSA; Hill slope 2.0 +/- 0.05; 5 mM EDTA; EMSA: 25 mM Tris-HCl pH 7.5, 15% glycerol, 100 mM NaCl, 2 mM DTT, 5 mM EDTA, 1 mg/ml BSA, 30 min 30 C, 1 nM DNA; pull-down: similar, 10% glycerol, 0.2 mg/ml BSA, 0.1% Triton X-100, 4 C. Conditions: protein: recombinant;recombinant; tags: N-terminal 6xHis-2xFlag;none; copies: 1;1; label: 5'-32P when used as probe; four-way junction, 40 bp arms.

In data set [6] the target is T2, Mlh1 untagged;HisFlag-Mlh3. As to the kind of experiment: FeBABE footprinting; Mlh3 linker enriched; EMSA: 25 mM Tris-HCl pH 7.5, 15% glycerol, 100 mM NaCl, 2 mM DTT, 5 mM EDTA, 1 mg/ml BSA, 30 min 30 C, 1 nM DNA; pull-down: similar, 10% glycerol, 0.2 mg/ml BSA, 0.1% Triton X-100, 4 C. The conditions noted are these: protein: recombinant;recombinant; tags: none;N-terminal 6xHis-2xFlag; copies: 1;1; label: 3'-biotin on strand 1; four-way junction, 40 bp arms.

The target of data set [7] is T1, HisFlag-Mlh1;Mlh3. As to the kind of experiment: FeBABE footprinting; mostly Mlh1 linker; EMSA: 25 mM Tris-HCl pH 7.5, 15% glycerol, 100 mM NaCl, 2 mM DTT, 5 mM EDTA, 1 mg/ml BSA, 30 min 30 C, 1 nM DNA; pull-down: similar, 10% glycerol, 0.2 mg/ml BSA, 0.1% Triton X-100, 4 C. The conditions noted are these: protein: recombinant;recombinant; tags: N-terminal 6xHis-2xFlag;none; copies: 1;1; label: 3'-biotin on strand 1; four-way junction, 40 bp arms.

Take TTTTTTTTTT (ssDNA) [ssDNA 10 nt competitor (poly-dT?)]: the binding result with HisFlag-Mlh1;Mlh3 [1] was “no binding”.

B1: ssDNA80 (cb099, poly-dT) (ssDNA)
DNA: TTTTTTTTTTTTTTTTTTTTTTTTTTTTTTTTTTTTTTTTTTTTTTTTTTTTTTTTTTTTTTTTTTTTTTTTTTTTTTTT
As for B1, the Kd (as a rule, the constant that tells how readily two partners part at equilibrium) with HisFlag-Mlh1;Mlh3 [2] turned out to be 45.9 nM.

B2: ssDNA+ (cb361) (ssDNA)
DNA: TTTTTTTTTTTTTTTTTTTTTTTTTTTTTTTTTTTTTTTTTTTTTTTTTTTTTTTTTTTTTTTTTTTTTTTTTTTTTTTT
modifications: phosphorothioates every 8 nt, FeBABE-conjugated
Take B2: the binding result (with HisFlag-Mlh1;Mlh3 [3]; in data set [4]) was “binds” in each case.

B3: HJ80 (cb095-098) (structured_DNA)
DNA 1: CTAGTATAGAGCCGGCGCGCCATGTCTAGATAGCGTTAGGTCTGCCGAATAGTACTACTCGGATCCCGAGCGAACCACGC
DNA 2: GCGTGGTTCGCTCGGGATCCGAGTAGTACTATTCGGCAGAGGATTCGAATAGGCCTAATCGAATTCCGCCATCGATGCAC
DNA 3: GTGCATCGATGGCGGAATTCGATTAGGCCTATTCGAATCCAGACGCGAGTAGATCTTCACGGTACCCGCGGTTACCCGTG
DNA 4: CACGGGTAACCGCGGGTACCGTGAAGATCTACTCGCGTCTCCTAACGCTATCTAGACATGGCGCGCCGGCTCTATACTAG
B3: the Kd with HisFlag-Mlh1;Mlh3 [5] was 72.9 nM.

B4: HJ+1 (cb256, 351, 369, 98) (structured_DNA)
DNA 1: CTAGTATAGAGCCGGCGCGCCATGTCTAGATAGCGTTAGGTCTGCCGAATAGTACTACTCGGATCCCGAGCGAACCACGC
DNA 2: GCGTGGTTCGCTCGGGATCCGAGTAGTACTATTCGGCAGAGGATTCGAATAGGCCTAATCGAATTCCGCCATCGATGCAC
DNA 3: GTGCATCGATGGCGGAATTCGATTAGGCCTATTCGAATCCAGACGCGAGTAGATCTTCACGGTACCCGCGGTTACCCGTG
DNA 4: CACGGGTAACCGCGGGTACCGTGAAGATCTACTCGCGTCTCCTAACGCTATCTAGACATGGCGCGCCGGCTCTATACTAG
modifications: phosphorothioates in strands 2 and 3 (segment 1), FeBABE-conjugated
Regarding B4, the binding result (in data set [6]; with HisFlag-Mlh1;Mlh3 [7]) was “binds” in each case.
